Assay results from US20240327530A1 (ICHNOS SCIENCES, published 2024).

T1: Mouse IL-1RAP, membrane-bound on NIH-3T3 cells (mouse, UniProt Q61730 21-570)
T1 sequence (looked up): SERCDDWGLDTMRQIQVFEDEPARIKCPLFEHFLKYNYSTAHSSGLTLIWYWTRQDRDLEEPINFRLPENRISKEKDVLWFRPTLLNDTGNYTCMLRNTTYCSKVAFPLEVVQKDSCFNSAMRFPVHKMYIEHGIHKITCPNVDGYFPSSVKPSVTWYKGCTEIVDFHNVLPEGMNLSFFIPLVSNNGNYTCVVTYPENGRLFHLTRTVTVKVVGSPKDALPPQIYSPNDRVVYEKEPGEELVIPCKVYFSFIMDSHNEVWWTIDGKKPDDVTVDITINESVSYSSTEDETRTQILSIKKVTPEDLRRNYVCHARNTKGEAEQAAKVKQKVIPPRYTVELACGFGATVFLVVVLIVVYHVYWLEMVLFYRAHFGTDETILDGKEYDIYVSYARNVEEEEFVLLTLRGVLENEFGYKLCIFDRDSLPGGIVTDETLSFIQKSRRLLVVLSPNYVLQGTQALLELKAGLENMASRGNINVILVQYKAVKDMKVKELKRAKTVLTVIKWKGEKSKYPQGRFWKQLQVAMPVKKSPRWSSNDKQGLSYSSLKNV

T2: Human IL-1RAP, membrane-bound on human cells (HaCaT, dermal fibroblasts, neutrophils, PBMC, whole blood) (human, UniProt Q9NPH3 21-570)
T2 construct: Endogenous protein on cells
T2 sequence: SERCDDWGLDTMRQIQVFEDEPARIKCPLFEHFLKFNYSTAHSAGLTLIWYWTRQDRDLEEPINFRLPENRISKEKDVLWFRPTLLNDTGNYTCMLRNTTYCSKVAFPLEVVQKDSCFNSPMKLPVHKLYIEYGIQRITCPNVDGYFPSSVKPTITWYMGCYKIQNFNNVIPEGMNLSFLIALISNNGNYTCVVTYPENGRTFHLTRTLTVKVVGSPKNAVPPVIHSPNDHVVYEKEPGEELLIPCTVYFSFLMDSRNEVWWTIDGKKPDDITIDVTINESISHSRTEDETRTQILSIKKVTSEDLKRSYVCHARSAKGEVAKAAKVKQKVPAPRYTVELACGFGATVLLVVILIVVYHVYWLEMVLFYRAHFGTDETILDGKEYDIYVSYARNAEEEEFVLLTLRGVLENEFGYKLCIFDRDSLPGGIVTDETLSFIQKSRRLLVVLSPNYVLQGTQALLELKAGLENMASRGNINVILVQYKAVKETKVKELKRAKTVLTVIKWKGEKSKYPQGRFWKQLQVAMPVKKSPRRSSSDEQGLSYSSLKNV

B1: Anti-IL-1RAP-C3-A3 mmIgG2a LALA (antibody, V domains shown)
VH: EVQLLESGGGLVQPGGSLRLSCAASGFIFSHYGMSWVRQAPGKGLEWVSAISYDGEGTLYADSVKGRFTISRDNSKNTLYLQMNSLRAEDTAVYYCARFRYYTAFDYWGQGTLVTVSS
VL: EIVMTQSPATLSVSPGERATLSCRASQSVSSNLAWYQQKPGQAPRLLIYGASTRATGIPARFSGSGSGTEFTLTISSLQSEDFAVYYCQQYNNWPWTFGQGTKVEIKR
notes: also called anti-IL-1RAP-C3-A3 mouse IgG2a LALA
B2: Anti-IL-1RAP-C8-RecC-ES-IgG1LALA (antibody, V domains shown)
VH: QVQLVQSGAEVKKPGSSVKVSCKASGSPAEPYAIQWVRQAPGQGLEWMGYIIPSLGGYDYAQKFQGRVTITADESTSTAYMELSSLRSEDTAVYYCARGQTLYESGRQFDIWGQGTLVTVSS
VL: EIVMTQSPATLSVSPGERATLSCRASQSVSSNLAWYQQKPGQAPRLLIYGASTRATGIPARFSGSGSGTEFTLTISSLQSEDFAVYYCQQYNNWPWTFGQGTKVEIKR
notes: also called ISB 880-C8-recC-ES

Assays:
[1] = biological target: T1, Mouse IL-1RAP, membrane-bound on …; test: cell-based or functional assay
[2] = biological target: T2, Human IL-1RAP, membrane-bound on human …; test: flow cytometry on normal human fibroblasts, nonlinear sigmoidal regression
Protocol: Bound antibodies were detected with a monoclonal anti-human IgG PE-Cyanine7 secondary antibody. The graphs show the nonlinear sigmoidal regression binding curves (Relative Geometric Mean Fluorescence Intensity) for each cell lines. Each data point is a measurement for a given cell line. Multiple independent experiments were performed across several donors (HaCaT and HaCaT IL-1RAP KO: 4 and 3 independent experiments; Human Dermal Fibroblasts: 2 independent experiments—total of 5 donors; Human Neutrophil: 2 experiments—total of 6 donors; Cyno Dermal Fibroblasts: 2 independent experiment—total of 4 donors).
In brief, cells were harvested, counted, and plated at 50,000 cells/well in a 96-well round-bottom plate. The plate was centrifuged at 350 g for 3 minutes and the cells were resuspended in 50 μl of FACS® buffer (PBS (1×)+2.5% FCS+2 mM EDTA+0.05% NaN₃) containing various concentrations (ranging from 50 to 0.00003 μg/ml) of either anti-human IL-1RAP_candidate_1 or Isotype control_5 antibodies. […] The cells were gated based on size on FSC vs SSC and analyzed for PE-Cyanine7-geometric mean (geomean) fluorescence intensity using FLOWJO® software. Finally, relative geomean fluorescence intensity was calculated by subtracting fluorescence of anti-human IL-1RAP_candidate_1 per fluorescence of Isotype control_5. […]

Binder	hIL-33-stimulated NIH-3T3, mIL-6 release, EC50 of inhibition [1]	mIL-1b-stimulated NIH-3T3, mIL-6 release, EC50 of inhibition [1]	mIL-36s-stimulated NIH-3T3, mCXCL-1 release, EC50 of inhibition [1]	Kd [2]
B1	1.02 nM	3.14 nM	1.68 nM	–
B2	–	–	–	3.1 nM
